Measured values published in article PMC4363599, “A Purification Method for a Molecular Complex in Which a Scaffold Molecule Is Fully Loaded with Heterogeneous Molecules”.

How the values were obtained:
[1] = biological target: L7Ae (UniProt O29494 1-119); experiment: SPR; no signal up to 2 uM RNA; SPR as in ref 9 (L7Ae chip, RNA analyte); resin and plate assays in assay buffer at room temperature; buffer composition, salt and pH not given in the material; conditions: protein: recombinant; tags: His tag (pET28b-His-L7Ae-cmyc-His named as the L7Ae expression plasmid); immobilized on SPR chip
L7Ae, sequence (O29494 whole entry): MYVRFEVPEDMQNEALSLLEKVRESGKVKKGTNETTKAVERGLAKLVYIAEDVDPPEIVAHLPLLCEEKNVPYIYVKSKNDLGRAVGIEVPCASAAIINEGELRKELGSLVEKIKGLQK

[2] = biological target: Alexa Fluor 633-labelled L7Ae (UniProt O29494 1-119); experiment: pull-down; fBCD35g resin removes most free L7Ae; SPR as in ref 9 (L7Ae chip, RNA analyte); resin and plate assays in assay buffer at room temperature; buffer composition, salt and pH not given in the material; conditions: protein: recombinant; tags: His tag; Alexa Fluor 633 by amine coupling; label: resin-immobilized
Alexa Fluor 633-labelled L7Ae, sequence (O29494 whole entry): as above

GGUUCAGCUGACUCGAAAGGGCGUGAUGCUGAAUC (XNA, 2'-fluoro on all pyrimidines) [BCD35 2'-fPy-RNA]
binding result [1]: no binding

GGUUCAGCUGAGGCGAAAGCCGGUGAUGCUGAAUC (XNA, 2'-fluoro on all pyrimidines) [fBCD35g immobilized on resin]
binding result [2]: binds
